Assay results from patent US20210347870A1.

Molecular target: mesothelin on MIA PaCa2-MSLN cells (mesothelin-overexpressing human pancreatic cancer cell line) (UniProt Q13421)
Experiment: flow cytometry: 1 µg scFv on 1x10^5 MIA PaCa2-MSLN cells, anti-6X His tag antibody detection

Sequence of UniProt Q13421 (Q13421 other isoform, or with tags, fused parts or gaps limits assumed): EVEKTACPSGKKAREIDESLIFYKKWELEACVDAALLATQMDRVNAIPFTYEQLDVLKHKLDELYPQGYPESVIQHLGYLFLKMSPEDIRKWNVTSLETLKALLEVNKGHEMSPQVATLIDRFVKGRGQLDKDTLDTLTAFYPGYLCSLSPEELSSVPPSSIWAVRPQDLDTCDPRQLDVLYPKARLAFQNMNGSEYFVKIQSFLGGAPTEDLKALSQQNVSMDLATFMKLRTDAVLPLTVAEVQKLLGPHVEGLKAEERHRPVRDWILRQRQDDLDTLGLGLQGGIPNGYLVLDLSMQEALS

percent bound [%]	Binder
> 68	MS501 scFv protein (scFv) scFv: EVQLLESGGGLVQPGGSLRLSCAASGFTFSNYAMSWVRQAPGKGLEWVSGIYPDSGSTYYADSVKGRFTISRDNSKNTLYLQMNSLRAEDTAVYYCARNIYTFDYWGQGTLVTVSSGGGGSGGGGSGGGGSQSVLTQPPSASGTPGQRVTISCSGSSSNIGSNAVSWYQQLPGTAPKLLIYYNNQRPSGVPDRFSGSKSGTSASLAISGLRSEDEADYYCGSWDSSLSGYVFGGGTKLTVLG
> 68	MS503 scFv protein (scFv) scFv: EVQLLESGGGLVQPGGSLRLSCAASGFTFSNYAMSWVRQAPGKGLEWVSSIYPGDGSTYYADSVKGRFTISRDNSKNTLYLQMNSLRAEDTAVYYCAKNAFTFDYWGQGTLVTVSSGGGGSGGGGSGGGGSQSVLTQPPSASGTPGQRVTISCSGSSSNIGSNAVSWYQQLPGTAPKLLIYYNSHRPSGVPDRFSGSKSGTSASLAISGLRSEDEADYYCGTWDSSLSGYVFGGGTKLTVLG
> 68	C2G4 scFv protein (scFv) scFv: EVQLLESGGGLVQPGGSLRLSCAASGFTFSNYAMSWVRQAPGKGLEWVSGIPPDSGSKYYADSVRGRFTVSRDNSKNTLYLQMNSLRAEDTAVYYCAKNMLSFDYWGQGTLVTVSSGGGGSGGGGSGGGGSQSVLTQPPSASGTPGQRVTISCTGSSSNIGSNAVSWYQQLPGTAPKLLIYYNSKRPSGVPDRFSGSKSGTSASLAISGLRSEDEADYYCGSWDPSLNGYVFGGGTKVTVLG
